What was measured:
[1] = target: RSV fusion (F) protein on RSV virus (respiratory syncytial virus, UniProt P03420 26-574); assay: cell-based or functional assay
VLP019 = assay: ELISA, VLP-coated wells, 0.5 µg/ml palivizumab, OD relative to sF-coated wells
VLP098 = assay: as above
VLP099 = assay: as above
VLP097 = assay: as above
VLP059 = assay: as above

B1: palivizumab (antibody, V domains shown)
VH: QVTLRESGPALVKPTQTLTLTCTFSGFSLSTSGMSVGWIRQPPGKALEWLADIWWDDKKDYNPSLKSRLTISKDTSKNQVVLKVTNMDPADTATYYCARSMITNWYFDVWGAGTTVTVSS
VL: DIQMTQSPSTLSASVGDRVTITCKCQLSVGYMHWYQQKPGKAPKLLIYDTSKLASGVPSRFSGSGSGTEFTLTISSLQPDDFATYYCFQGSGYPFTFGGGTKLEIK
PRNT as measured by the IC50 point [1]: ~0.5 µg/mL
Palivizumab binding in vitro (sF = 100%) (VLP019): 100%
Palivizumab binding in vitro (sF = 100%) (VLP098): 47%
Palivizumab binding in vitro (sF = 100%) (VLP099): 95%
Palivizumab binding in vitro (sF = 100%) (VLP097): 112%
Palivizumab binding in vitro (sF = 100%) (VLP059): 83%
